The target in assay [1] is HIV-1AD8 Env variants (N332 substituted) tested against V3-glycan bnAbs.
Assay [2] has the same target. This is another data set of the same source.

Consider 2G12 (antibody), for which the IC50 of neutralisation: entry of Env-pseudotyped virus into Cf2-Th/CD4+CCR5+ cells (luciferase); told of most variants here, of all AD8 variants in p-0007 in assay [1] was > 10 µg/mL. Consider PGT121 (antibody), for which the IC50 of neutralisation: entry of Env-pseudotyped virus into Cf2-Th/CD4+CCR5+ cells (luciferase) in assay [2] was < 1 µg/mL. In the case of 10–1074 (antibody), the IC50 of neutralisation: entry of Env-pseudotyped virus into Cf2-Th/CD4+CCR5+ cells (luciferase); told of most variants in assay [1] is > 10 µg/mL.
